Measured values taken from patent US20160251444A1.
Values belong to the molecule of their own block, whether it stands above or below them.

Experiments:
[1] = molecular target: CD20 on human cells (Daudi cells, B cells in PBMCs) (human) (UniProt P11836); assay: cell-based or functional assay
[2] = molecular target: Soluble single-chain human neonatal Fc receptor (scFcRn) (human) (UniProt P55899); assay: SPR (Biacore X), scFcRn immobilized on CM5 chip, pH 6.0, two-state model; mean of 3 runs
[3] = molecular target: Soluble single-chain human neonatal Fc receptor (scFcRn) (human) (UniProt P55899); assay: SPR (Biacore X), scFcRn immobilized on CM5 chip, pH 6.0, two-state model; Run 3
[4] = molecular target: Soluble single-chain human neonatal Fc receptor (scFcRn) (human) (UniProt P55899); assay: SPR (Biacore X), scFcRn immobilized on CM5 chip, pH 6.0, two-state model; Run 2
[5] = molecular target: Soluble single-chain human neonatal Fc receptor (scFcRn) (human) (UniProt P55899); assay: SPR (Biacore X), scFcRn immobilized on CM5 chip, pH 6.0, two-state model; Run 1
[6] = molecular target: CD22 on human cells (B cells in PBMCs, Daudi, D1-1) (human) (UniProt P20273); assay: cell-based or functional assay

Sequence of CD20 on human cells (Daudi cells, B cells in PBMCs) (human) (P11836 whole entry): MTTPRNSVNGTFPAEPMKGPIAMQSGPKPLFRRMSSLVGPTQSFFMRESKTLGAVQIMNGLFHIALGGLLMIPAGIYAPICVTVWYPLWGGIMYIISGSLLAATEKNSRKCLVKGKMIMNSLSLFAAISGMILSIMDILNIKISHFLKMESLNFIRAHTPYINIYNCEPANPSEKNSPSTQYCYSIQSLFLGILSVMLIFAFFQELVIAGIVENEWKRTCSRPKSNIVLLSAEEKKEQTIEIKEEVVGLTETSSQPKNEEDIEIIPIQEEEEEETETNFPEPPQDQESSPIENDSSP

Molecule: 20*-2b (Ck-IgG-IFNα: veltuzumab with four IFNα2b fused at the light chains) (from UniProt P01563 24-188)
in vitro cytotoxicity in Daudi cells (MTS assay), EC50 [1]: 0.0002 nM

Molecule: 20-2b (Fc-IgG-IFNα: veltuzumab with four IFNα2b fused at the heavy chains) (from UniProt P01563 24-188)
in vitro cytotoxicity in Daudi cells (MTS assay), EC50 [1]: 0.0002 nM

Kd [2]: 16.3 nM
Kd [3]: 15.8 nM
Kd [4]: 17.9 nM
Kd [5]: 15 nM
Molecule: Epratuzumab (humanized anti-CD22 IgG1) (antibody)

surface CD22 on B cells of PBMCs after treatment, % of isotype control MFI (flow cytometry) [6]: 45 % control
B1: F(ab')2 fragment of epratuzumab (protein, INN chains, looked up)
VH: QVQLVQSGAEVKKPGSSVKVSCKASGYTFTSYWLHWVRQAPGQGLEWIGYINPRNDYTEYNQNFKDKATITADESTNTAYMELSSLRSEDTAFYFCARRDITTFYWGQGTTVTVSS
VL: DIQLTQSPSSLSASVGDRVTMSCKSSQSVLYSANHKNYLAWYQQKPGKAPKLLIYWASTRESGVPSRFSGSGSGTDFTFTISSLQPEDIATYYCHQYLSSWTFGGGTKLEIK
modifications: F(ab')2
